Measured values taken from US20210340257A1.

Legend:
[1] = target: recombinant soluble human B7-H3 ectodomain protein (human) (UniProt Q5ZPR3); test: flow cytometry; unconjugated streptavidin magnetic beads, 3 µM soluble B7-H3, detected with APC anti-B7-H3 antibody
[2] = target: human B7-H3 (CD276), on cells (human) (UniProt Q5ZPR3); test: flow chamber attachment of microbubbles to MS1hB7-H3 cells under shear
[3] = target: human B7-H3 (CD276), on cells (human) (UniProt Q5ZPR3); test: parallel-plate flow chamber attachment of microbubbles to MS1 B7-H3+ cells under shear
[4] = target: recombinant soluble human B7-H3 ectodomain protein (human) (UniProt Q5ZPR3); test: flow cytometry; antibody on streptavidin magnetic beads, 3 µM soluble B7-H3, detected with APC anti-B7-H3 antibody
[5] = target: mouse B7-H3, on cells (mouse) (UniProt Q8VE98); test: cell-based or functional assay
mouse B7-H3, on cells (mouse), sequence (Q8VE98 29-316): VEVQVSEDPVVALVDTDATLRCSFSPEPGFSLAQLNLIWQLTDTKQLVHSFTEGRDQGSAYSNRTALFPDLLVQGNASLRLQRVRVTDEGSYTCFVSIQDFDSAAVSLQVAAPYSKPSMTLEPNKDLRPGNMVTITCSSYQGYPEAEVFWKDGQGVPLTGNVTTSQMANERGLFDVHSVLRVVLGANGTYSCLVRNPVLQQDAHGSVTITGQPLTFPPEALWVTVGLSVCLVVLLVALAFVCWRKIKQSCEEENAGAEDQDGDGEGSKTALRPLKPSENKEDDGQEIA

[6] = target: human B7-H3 (CD276), on cells (human) (UniProt Q5ZPR3); test: cell-based or functional assay

human B7-H3 (CD276), on cells (human), sequence (Q5ZPR3 29-534): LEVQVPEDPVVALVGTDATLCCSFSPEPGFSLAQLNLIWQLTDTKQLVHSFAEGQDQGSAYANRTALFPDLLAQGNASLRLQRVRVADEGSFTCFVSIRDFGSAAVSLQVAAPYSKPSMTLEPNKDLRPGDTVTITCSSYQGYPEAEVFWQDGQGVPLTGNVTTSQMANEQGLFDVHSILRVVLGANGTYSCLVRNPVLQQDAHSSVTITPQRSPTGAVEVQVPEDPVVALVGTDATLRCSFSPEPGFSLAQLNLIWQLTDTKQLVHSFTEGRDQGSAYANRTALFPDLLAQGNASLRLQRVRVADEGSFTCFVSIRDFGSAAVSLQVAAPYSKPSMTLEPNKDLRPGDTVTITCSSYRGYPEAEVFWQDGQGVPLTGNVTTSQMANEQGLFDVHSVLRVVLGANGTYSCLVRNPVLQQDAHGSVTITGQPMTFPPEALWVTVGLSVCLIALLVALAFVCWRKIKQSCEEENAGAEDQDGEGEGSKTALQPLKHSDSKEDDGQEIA

% binding [1] [%]	microbubbles attached per cell [2] [MB/cell]	microbubbles attached per cell [3] [MB/cell]	% binding [4] [%]	US molecular imaging signal, mammary tumors of MMTV-PyMT transgenic mice [5] [a.u.]	in vivo ultrasound molecular imaging signal of tumors (transgenic mouse model) [5] [a.u.]	targeted imaging signal in transgenic mice with breast tumors [5] [a.u.]	US molecular imaging signal, orthotopic MDA-MB-231 tumors co-implanted with MS1hB7-H3 cells [6] [a.u.]	Substance
1								unconjugated streptavidin magnetic beads (from UniProt P22629 37-163)
	0.5	0.5						MBNon-targeted (unconjugated streptavidin-coated microbubbles) (from UniProt P22629 37-163)
	9.8	9.79	81	7.2	4.82	6.22	8.2	biotinylated anti-B7-H3 antibody (eBiosciences, clone M3.2D7)
